Data: the DeepSol protein solubility set

experiment: soluble on expression in E. coli; label from the status in PepcDB or PDB records

| Sequence | soluble on expression in E. coli |
| --- | --- |
| MEVEAFAHSVAPLAPRLKRVAYSILDDEEAAADVSQEALMRLWINRERLGGYDSIEAVAVTTARRIALDMLRKEGRMEPLPDDLPFSDHAPTPQGVLEQSETMRLVEAAIEALPPLQRMTFRLKEIEGYESEVIARLVGVKVEAVYTNLSRARRALRTALALQLKR | not soluble |
| MARFIAQLLLLASCVAAGQAVTAFLGERVTLTSYWRRVSLGPEIEVSWFKLGPGEEQVLIGRMHHDVIFIEWPFRGFFDIHRSANTFFLVVTAANISHDGNYLCRMKLGETEVTKQEHLSVVKPLTLSVHSERSQFPDFSVLTVTCTVNAFPHPHVQWLMPEGVEPAPTAANGGVMKEKDGSLSVAVDLSLPKPWHLPVTCVGKNDKEEAHGVYVSGYLSQ | soluble |
| MSLLPVNNPPLSTGNVSFYRTTSIDNVHNNYLSEWVEWTKNSISGENRETAFTRLQLCLENSETSLDLSCLGLRSLPRLPDNLDEINVSNNQLSMLPELPRALKELNASSNQLSALPELPVSLEYINVSDNHLFALPELPASLEYINVSDNHLSVLPRLPMSLELLDAARNALEVIPDFPERDDHIIRIFWLNQNRITAIPESILGLSSDSVVNLRENQLSPRIMQTLLQQTAQPDYHGPRIYFSMSDGQQNTLHRPLADAVTAWFPENKQSDVSQIWHAFEHEEHANTFSAFLDRLSDTVSARNTSGFREQVAAWLEKLSASAELRQQSFAVAADATESCEDRVALTWNNLRKTLLVHQASEGLFDNDTGALLSLGREMFRLEILEDIARDKVRTLHFVDEIEVYLAFQTMLAEKLQLSTAVKEMRFYGVSGVTANDLRTAEAMVRSREENEFTDWFSLWGPWHAVLKRTEADRWAQAEEQKYEMLENEYPQRVADRLKASGLSGDADAEREAGAQVMRETEQQIYRQLTDEVLALRLSENGSQLHHSEGHHHHHH | soluble |
| MIGNILVAHGMRKGNQNEALEEFIGTLLKDEQYYYELAFLESETQNLEIIMEKMIKQGITKFRIVPLLIFSAMHYISDIPQILKEMKARYPQIDSKMSAPLGTHPYMKTLVENRIAEEKVSEGSTKATIVIAHGNGSGRFTKAHDELKAFVKTLDSHHPVYARALYGTLAFKNDLDKISEQYDELVIVPLFLFDGRLVNKVKRLLGEMTLHSQLHITPSINFDPILRLIIRERLEALDILEHHHHHH | soluble |
| SKKGGKRFEIACYKNKVMSWRSGAEKDLDEVLQTNTVFVNVSKGQVAKKEDLSNAFGTDDLTEICKQILSKGELQVSDKERQSQLEQMFRDIATIVAEKCVNPETKRPYTVNLIERAMKDIHFSVKANKSTKQQALEVIKQLKESIQIQRAHMRLRFVLPAKDGKRLKEKLKPLIKAVENEDFDDQLEMVCLIDPGCFRDIDELIRCETKGKGTLEVLSLKDVEEGDEKLE | soluble |
| QNPSIYCAGHGIYWVAYDMGTALSTGPVKVEAETSGDIDGRIYGIVLAAVYEDKEGQDTRYWVEEGNINLHDKGRSEEASSTHDEAYADFSGKVDVDRYKTANLAAVYLCGSPGLGDSLYFNDEQLSDGENSNDIANSKSYFDLKFFDVLDFLAEDDNELRFQRDDEDYLHPVFAALSLGTEEEGSSDLIVSGVTLPVLYAGQENIIKANIKNIGRDSAYGFQAALYADNEIVSTASVSSLSSGKSKTIDFNWKPGRSGEHVLKVSVDYTNRKKELCEINNWNIPFLANIIDLTPPEIEIDSPLDGSSVSSGYLKVSGTVEDTSRNTTVDVNGQKALLADKRWSADIPVAPGPNKIVVSAVDGTNNTGKEFILVTGISSGSGNNESFVSGGEREHVNRKVNAEPVSSTIPVYRSDI | not soluble |
| MAHHHHHHMWFGQLVIGPPGSGKSTYVAGVEHILRQINRKLVLINLDPFVENDVYKADVNISDLVDIKKVFCDLGLGPNGTLIYCMEYLLINFDWLEEKLKEHKDHYLLIDTPGQVELYTHNDALRKIVEKMTKMNCRLTSVHIVDSTLCSDNYKYVSALLLSLCSQIHLELPHVNVFSKIDLLKYFRDDLNFPLSYYVEAQNLEQLMLYARYQNESSSGSEGVNMGDDSPSGSLNDRSSCAQSAIKQAIRNDINSGRIKNVRKNYKKFSNKFLKLNEYICETVEDYNMINFALLDIQDKYSVLKLLKIIDGANGFRFSSIYSEYSLFDTYAEAIEYDCDDIQEKIVDVSDEEKEASLSGHPPHG | not soluble |
| MSADFEQLVAQFERFQARMTRVEQQFAGVDDMRQRLAELEVAATSADRSVTVVAGPSGAILDIRLTEQAVRKPAHALAGELMSTLRKAVAEAARRQAGIVDGALGEAFGDDLDLTEQVLETQAELFGMSKEELRAVTAEEATTAPQQGPPAPPARPTPPSPGQPQGGPVPGRPEPGQARTGGPQPGRPHSGRQQSGQPQPGRPQSGQPQPGRPQSGQPQPGKSQPGTSQPGQARPGQSGPAQRPQGGEPQQEDFSERNFMKDDWKQSGSKAQPPGPGGKQDDRFLNLYDDEDGR | not soluble |
| HHHHHHSSGLVPRGSGMKETAAAKFERQHMDSPDLGTDDDDKASSSANECISVKGRIYSILKQIGSGGSSKVFQVLNEKKQIYAIKYVNLEEADNQTLDSYRNEIAYLNKLQQHSDKIIRLYDYEITDQYIYMVMECGNIDLNSWLKKKKSIDPWERKSYWKNMLEAVHTIHQHGIVHSDLKPANFLIVDGMLKLIDFGIANQMQPDTTSVVKDSQVGAVNYMPPEAIKDMSSSRENGKSKSKISPKSDVWSLGCILYYMTYGKTPFQQIINQISKLHAIIDPNHEIEFPDIPEKDLQDVLKCCLKRDPKQRISIPELLAHPYVQIQTHPVNQMAKGTTEEMKYVLGQLVGLNSPNSILKAAKTLYEHYSGGESHNSSSSKTFEKKRGKK | soluble |
| MIKFGTGGWRAFIGEEFTKDNVRLVAQALANIIHHEQAANEGFVIGYDRRFLSDKAGRWFAEVLAANGVVVSFIDKFVPTPVVMFKAKAMDCAYSACITASHNPADYNGIKVFIRGGRDADEVITQKIEQQIATLTLQDVKSIDFDQAVNDKLIDIINPMNEFVDSIINFIDIEAIKKANLRVLIDPMFGVAKNALQTVLINGRCDVDVINDGKNPDFGGLMPSPSAATLYRLKHLVKHEGYDIGIGTDGDADRLGIIDEKGNFIHPNEVLILLYYYLLEYKGWKGSVVRNIATTHLLDKIAADHGERCFEVPVGFKHISSQMEADDSLIGGESSGGLTIRGHIKGKDGVFASSLLVEMISVTGKKLSELLTEIYDRYGYAYTAEGDCKFKPAQRDEIYNKVYIEKKLPEFEFDIDKVSYEDGAKVYFKNGGWVIARFSGTEPLLRIFAEMADKDTAERVLQQMKAFLAL | not soluble |
| MALTLAKNQTISLEKTAGTGLKKVSMGLGWDPEKASGFFGKLLGGGGGDIDLDASCIMLDADKKPLDLVWFRQLQSRDGAILHSGDNRTGEGAGDDETISVDLEKLPATVKYLVFTVNSFTGQNFEKVANAYCRIVDLGTRNELGRFDLSEKGQHTGVVMSYLSRTPSGWDFTAVGQATNGRTADDLVELAIGAVRA | not soluble |
| MGSDKIHHHHHHMKFVEIRDLQVTYMGKDKPSIVVDKLDIEEGESVLITGRSGSGKSTLVSVINGVIPHLINAEIKGEVRVFGFDVKSTPIHEISKYVGTLLQDPDTQAFNYTIIDEVAFGVENYMISRDEMIERVEESMKIYGISHLRDREINTLSGGELQRTILASVLAMRPKALILDEPTSNIDPQGTREILELVKTFRSEGISLVLVEHKIERVLPFVDRIIVVEEGKIAVDVRKDEIVDKADFLYSLGLEIPDYMLFLKKNGFRKIDYEYLRKTYTYRPPSRIGGKGEALYASVKVKTKNGIYLINTKISLKQGTITALMGKNGSGKTTLLKVIVGLIDKKRLIVEEEKVIVNGVDLSKTKLVERGKFIAYLPQFFDVMFIKRTVEDEIKFSMKNRGTYDEKRLGEVLKMFSLDAYRKEDPLVLSMGQRRRVAMASVLAGGAKVILMDEPTSGQDWYHRQILGKELLELRDKGYTILVVTHDSRFVDRFADYLLVMNEGKIVLEGKPEEVFIKSLRHGIEPPLEYELGGLIKNEHFS | not soluble |
| MGSDKIHHHHHHMFDRSRKGEHALLIQTHSGGPAEEDVLEEFAELAKSAGATVAATLTARIDKPSPSTLIGSGKLEEVKAAAEATGADLVLVNHTLSPGQERNLERYLERRVIDRTGLILDIFAQRARSHEGKLQVELAQLRHMATRLVRGWTHLERQRGGAIGLRGPGETQLETDRRLLQKRVEQLQKRLEKVEVQRTQMRRARMRSELPRIALVGYTNAGKSTLFNALTGADAYAADQLFATLDPTVRRIALPGGSAVLADTVGFVRDLPHELVAAFRSTLSEARDADLLLHIVDAADPLREERIHQVDEVLQAVGAGDLPQLLVFNKIDKIEGAEVRHDAQDGIPDQARRERVWISARDGRGLEELQRALGHRLDLRHITGSLRLPASAGRLRSKLHQLEVIRSEQVDEEGWLLEVDLPYVEAERLAAGEDGAPLRALLPDRREDWET | not soluble |
| SRVKKNVLDYNAWAEGTLKGIKQEKKAYKERHRLFFEGLSEAEKVEYATKMAHDAQIYDEPEFDPQELQSEYYRGLYAFDNRKNNVDSYK | soluble |
| GFGCPGNQLKCNNHCKSISCRAGYCDAATLWLRCTCTDCNGKK | soluble |
| GPGSMIARAIANRAACTFLNISSSSLMSKWMGDGEKLVRCLFAVATVKQPSVIFIDEIDSLLSMRGEGETDSVRRVKTEFLVQLDGVATDRGDRVLLIGATNRPDELDEAARRRMEKRLYIPLPDEAARRELIQRLLKSLGPSEAGEDGAIGNAGEAASTATATTTTQVTHTLTDADLDTLVRSTDGYSGADLKQLCREAAMGPLREMSIMQLSAVAAADLRPVQRKDFRQALKRLKPSVGPAEVQRYVEWNKLFGSFNEHDDDDDDELEHHEGHGAC | soluble |
| MGSDKIHHHHHHMSGAKVISVMNWKGGVGKTTMTHHLGTGLHMLTKEERLEYLGSEKMPRILFVDNDAQCNLSISCLHVEKYEDLVYKQNIPTIYDLYKLFICNESPVVDMHNYIIKNQVRMDNRRIFMGMDLLPAHQELVYLDMNIAMNSRASFQSGLISKEIYKYQYLNDILEPVCSDYDYIFIDCPPNLGYTTLNALYASEYCLIPTGLDHLSSYGIASLLKEIDRLNTEFATAVPDHPMIEVVGIVANNVEENREAPKRSQKLIRERLQDSYHELMFEPYLTRGDGIPNASEQGYPVYADRSANALKQGDLLLGILREFLDRI | not soluble |
| MAKISEIMLLQQPEQPALAIEVQTYMKGMSQAIGENFVRIDSLFKKQGEVTTDIPFVEYPDFESLTEDRIKMIIGLKSSKPLQGDEKIQSVILPARRIVVCLHRGNYNELAQLYNEMTEWIKTNGYKASGTSIEYYYSNPDVPEEEHVTRVEMPLL | not soluble |
| QRQPGHFCRSVLLAPVGAFLWQRSLPALMSPLPIRKTIHWLLANKPKLFAHKFSRHAWPDSHYRRMGAGYARCRAFIPYWDMVRADTALPLLEWVQDPIELVWGDQDKVLGIDQAAAWSAILARADLTISLKPGWGHYPWIDSPAEFAQWLES | not soluble |
| MDTSSSCKAFLLDSALAVKWPRDKETAPRLPQHRGWNPGDAPQTSQGRGTGTPVGAETKTLPSTDVAQPPSDSDAVGPRSGFPPQPSLPLCRAPGQLGEKQLPSSTSDDRVKDEFSDLSEGDVLSEDENDKKQNAQSSDESFEPYPERKVSGKKSESKEAKKSEEPRIRKKPGPKPGWKKKLRCEREELPTIYKCPYQGCTAVYRGADGMKKHIKEHHEEVRERPCPHPGCNKVFMIDRYLQRHVKLIHTEVRNYICDECGQTFKQRKHLLVHQMRHSGAKPLQCEVCGFQCRQRASLKYHMTKHKAETELDFACDQCGRRFEKAHNLNVHMSMVHPLTQTQDKALPLEAEPPPGPPSPSVTTEGQAVKPEPT | soluble |
| MHGKLIGVGVGPGDSELLTLRAVNVLRSVPVICAPRSSSERESIALSIVEDILTERRDGCRILDPVFPMTDDRDELESHWDSAARMVAAELEDGRDVAFITLGDPSIYSTFSYLQQRIEDMGFKTEMVPGVTSFTACAATAGRTLVEGDEILLVVPRVDDRFERVLRDVDACVIMKTSRHGRRAMEVVESDPRGKDVVSVANCSMDDEVVERGFASGGGYLATTLVRFREQS | soluble |
